From patent US20110165623A1
pKd: −log10 of the molar value.

What was measured:
[1] = molecular target: purified recombinant mature TGFβ1 (expressed in CHO cells from the modified porcine TGFβ1 cDNA) (porcine) (UniProt P07200); test: surface plasmon resonance, steady state response, double reciprocal plot; x axis printed as 1/[TβRII] (µM-1), y axis 1/Binding RU
[2] = molecular target: purified recombinant mature TGFβ1 (expressed in CHO cells from the modified porcine TGFβ1 cDNA) (porcine) (UniProt P07200); test: SPR (BIAcore 3000); TGFβ1 immobilised on a CM5 chip, TβRII 150 nM to 0.6 nM as analyte; steady state, linear regression of 1/Response versus 1/C; TGFβ1 immobilised on the chip, TβRII as analyte; steady state

UniProt P07200, sequence (P07200 279-390): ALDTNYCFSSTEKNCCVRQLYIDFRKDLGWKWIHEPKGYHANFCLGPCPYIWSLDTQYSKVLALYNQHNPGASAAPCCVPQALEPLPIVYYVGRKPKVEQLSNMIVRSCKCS

## TGFβ1 type II receptor (residues 22-136), refolded from inclusion bodies (from UniProt P37173 45-159)
[1]
  intercept of the linear regression of 1/Binding RU against 1/[TβRII]: 0.00102
[2]
  pKd: 7.26
